This note sets out measurements from patent publication US20230105982A1, “INSULIN-INCRETIN CONJUGATES” (Merck Sharp & Dohme Corp., priority 2021, published 2023).

Assay [1] deals with human insulin receptor (pAkt assay, CHO cells overexpressing human IR) (human) (UniProt P06213). The assay is described as follows: cell-based or functional assay.
Assay [2] concerns the target minipig insulin receptor (minipig). The assay is described as follows: cell-based or functional assay.

Insulin levemir (ligand): the Insulin Receptor pAK Assay EC50 in assay [1] is 0.51 nM; in assay [2], 0.5 nM.
